We go through 29 molecules from article PMC6324732 (Cancer immunology research, 2018).

B1: CSNK1A1 neoantigen peptide … (peptide)
peptide: GLFGDIYLAI
B2: GANAB neoantigen peptide … (peptide)
peptide: ALYGFVPVL
B3: CDK4 neoantigen peptide … (peptide)
peptide: ACDPHSGHFV
B4: FNDC3B neoantigen peptide … (peptide)
peptide: VVMSWAPPV
B5: ERBB2 neoantigen peptide … (peptide)
peptide: ALIHHNTYL
B6: AHNAK neoantigen peptide … (peptide)
peptide: FMPDFDLHL
B7: ACPP neoantigen peptide … (peptide)
peptide: VLAKKLKFV
B8: HAUS3 neoantigen peptide … (peptide)
peptide: ILNAMIAKI
B9: GAPDH neoantigen peptide … (peptide)
peptide: GIVEGLITTV
B10: ACTININ neoantigen peptide … (peptide)
peptide: FIASNGVKLV
B11: NSDHL neoantigen peptide … (peptide)
peptide: ILTGLNYEV
B12: DCAKD neoantigen peptide … (peptide)
peptide: LLHTELERFL
B13: SRPX neoantigen peptide … (peptide)
peptide: TLWCSPIKV
B14: KIAA0223 neoantigen peptide … (peptide)
peptide: VLHDDLLEA
B15: TEAD1 neoantigen peptide … (peptide)
peptide: SVLENFTIFL
B16: TEAD1 neoantigen peptide … (peptide)
peptide: VLENFTIFLV
B17: PRDX5 neoantigen peptide … (peptide)
peptide: LLLDDLLVSI
B18: HSP70 neoantigen peptide … (peptide)
peptide: SLFEGIDIYT
B19: COL18A1 neoantigen peptide … (peptide)
peptide: VLLGVKLFGV
B20: CIT neoantigen peptide … (peptide)
peptide: TLLSQVNKV
B21: FLNA neoantigen peptide … (peptide)
peptide: HIAKSLFEV
B22: GAS7 neoantigen peptide … (peptide)
peptide: SLADEAEVYL
B23: SPOP neoantigen peptide … (peptide)
peptide: FLLDEAIGL
B24: ME-1 neoantigen peptide … (peptide)
peptide: FLDEFMEGV
B25: CDC37L1 neoantigen peptide … (peptide)
peptide: FLSDHLYLV
B26: CLPP neoantigen peptide … (peptide)
peptide: ILDKVLVHL

One assay has as its target HLA-A*02:01 heavy chain / β2-microglobulin (human). Description: differential scanning fluorimetry.
Details: not given
(In general: In DSF a fluorescence change marks the thermal transition of the protein.)
Regarding B1, the Tm of the peptide/HLA-A2 complex was determined as 52.6 °C.
Still for that read-out and setting: under B2 stands 61.7 °C; under B3, 59.9 °C; under B4, 61.6 °C.
B5: the Tm of the peptide/HLA-A2 complex worked out at 59.4 °C.
Same read-out and setting: under B6 stands 60.1 °C; under B7, 56.8 °C.
B8: the Tm of the peptide/HLA-A2 complex stood at 56.9 °C.
Regarding B9, the Tm of the peptide/HLA-A2 complex turned out to be 58.5 °C.
As for B10, the Tm of the peptide/HLA-A2 complex was 56.9 °C.
On to B11, for which the Tm of the peptide/HLA-A2 complex was 61.4 °C.
The same measure, in the same setting: with B12 the figure was 42.9 °C.
Still for that read-out and setting: with B13 the figure was 63.7 °C; with B14, 59.7 °C.
On the same count and under the same terms, under B15 stands 55.8 °C; under B16, 48.2 °C; under B17, 55.3 °C.
Consider B18, for which the Tm of the peptide/HLA-A2 complex amounted to 59.8 °C.
B19: the Tm of the peptide/HLA-A2 complex is 60.9 °C.
As for B20, the Tm of the peptide/HLA-A2 complex was determined as 53.2 °C.
Same read-out and setting: under B21 stands 56.4 °C; under B22, 59.2 °C.
Consider B23, for which the Tm of the peptide/HLA-A2 complex came out at 60.7 °C.
With B24, the Tm of the peptide/HLA-A2 complex turned out to be 63.2 °C.
Still for that read-out and setting: under B25 stands 61.8 °C; under B26, 57.1 °C.

The subject of another assay is HLA-A2-restricted T-cell response.
Experiment: not given
Particulars: HLA-A2-restricted epitopes; cited from earlier work.
Turning to FLTSVINRV, the “immunogenicity (reported)” value is “immunogenic”.

The target of the next assay is HLA-A*02:01 heavy chain / β2-microglobulin (human). Nature of the assay: differential scanning fluorimetry.
Details: not given
The source holds these as a separate data set.
On to TAX peptide, for which the Tm of the peptide/HLA-A2 complex worked out at 61.9 °C.

The subject of a further assay is HLA-A2.
Experiment: not given
Particulars: each complex refolded with HLA-A2 individually, DSF; cited from earlier work.
Consider YMDGTMSQV [Tyrosinase], for which the “Tm value determined by another lab” value is 67.3 °C.

For another assay, the system named is HLA-A2.
Experiment: not given
The conditions noted are these: pep/HLA-A2 complexes; cited from earlier work.
For FLTSVINRV, the “half-life of the complex (reported)” value was 22.3 h.
